Test results: patent publication US20240368568, “MODIFIED PRP43 HELICASE AND USE THEREOF” (QITAN TECHNOLOGY LTD., CHENGDU, published 2024)

Columns and labels:
[1] = target: Prp43-GP (T61-A764 fused to G-path domain of Pfa1) (Chaetomium thermophilum); assay: EMSA; milder dissociation than wild type; 120 nM protein, 30 nM DNA; settings: tags: C-terminal G-path domain fusion; GST tag removed; label: FAM
Protocol: (§1) In this example, the binding of the N-terminus (M1-N60)-truncated wild-type Prp43 helicases or the modified protein constructs Prp43-GP and Prp43-GP-2 (F181C/N623C/C508S) to DNA, including the enhancement of nucleic acid binding following disulfide bond formation between mutant sites F181C and N623C in the mutants catalyzed by a TMAD catalyst, was assayed by an electrophoresis mobility shift assay.
(§2) The experimental procedures were as follows: 30 nM FAM fluorophore-labeled single-stranded poly-thymine substrate T44-37-FAM was added to a buffer (10 mM HEPES, 50 mM KCl, pH 7.0), the wild-type Prp43 helicase and the modified helicases […] and Prp43-GP-2 at a final concentration of 120 nM were separately added, and the mixture was incubated at 30° C. for 1.5 h; a TMAD cross-linking agent at a final concentration 1000 times that of the helicase was used for catalyzing the crosslinking of cysteines at mutation sites, and the mixture was incubated at 30° C. for 1.5 h.

[2] = target: Prp43-GP-2 (F181C/N623C/C508S) (Chaetomium thermophilum); assay: EMSA; no significant dissociation with or without TMAD; 120 nM protein, 30 nM DNA; settings: tags: C-terminal G-path domain fusion; GST tag removed; label: FAM
Protocol: as §1, §2

## TTTTTTTTTTTTTTTTTTTTTTTTTTTTTTTTTTTTTTTTTTTT (ssDNA, [FAM at T37 (from name)]) [T44-37-FAM poly-thymine substrate]
[1]
  binding result: binds
[2]
  binding result: binds
